Reference: US20110166062A1 (INDIANA UNIVERSITY RESEARCH AND TECHNOLOGY, published 2011)
Bridges are numbered along the chain shown (N, C = ends). Where no end group is shown, it is not given here. [ ]: non-standard residue; d: D form. Aib = CC(C)(N)C(=O)O

T1: GIP receptor (UniProt P48546 22-466)
T1 sequence (looked up): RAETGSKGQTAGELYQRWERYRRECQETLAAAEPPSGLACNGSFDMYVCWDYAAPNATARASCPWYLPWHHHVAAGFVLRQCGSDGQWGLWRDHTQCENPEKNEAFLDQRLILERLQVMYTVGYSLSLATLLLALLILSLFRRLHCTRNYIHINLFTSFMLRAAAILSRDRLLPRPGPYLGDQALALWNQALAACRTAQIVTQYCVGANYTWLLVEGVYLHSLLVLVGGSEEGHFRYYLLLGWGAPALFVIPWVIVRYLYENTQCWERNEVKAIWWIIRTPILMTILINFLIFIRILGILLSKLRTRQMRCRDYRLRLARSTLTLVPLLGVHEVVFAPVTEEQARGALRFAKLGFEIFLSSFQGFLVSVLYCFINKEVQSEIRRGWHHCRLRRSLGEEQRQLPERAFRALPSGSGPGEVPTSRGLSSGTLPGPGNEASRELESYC


Assays:
Experiment in all cases: cell-based or functional assay
GIP receptor = biological target: T1, GIP receptor
GLP-1 receptor = GLP-1 receptor (UniProt P43220 24-463, limits assumed)
glucagon receptor = glucagon receptor (UniProt P47871 26-477, limits assumed)
Chain of glucagon receptor (P47871 26-477 limits assumed): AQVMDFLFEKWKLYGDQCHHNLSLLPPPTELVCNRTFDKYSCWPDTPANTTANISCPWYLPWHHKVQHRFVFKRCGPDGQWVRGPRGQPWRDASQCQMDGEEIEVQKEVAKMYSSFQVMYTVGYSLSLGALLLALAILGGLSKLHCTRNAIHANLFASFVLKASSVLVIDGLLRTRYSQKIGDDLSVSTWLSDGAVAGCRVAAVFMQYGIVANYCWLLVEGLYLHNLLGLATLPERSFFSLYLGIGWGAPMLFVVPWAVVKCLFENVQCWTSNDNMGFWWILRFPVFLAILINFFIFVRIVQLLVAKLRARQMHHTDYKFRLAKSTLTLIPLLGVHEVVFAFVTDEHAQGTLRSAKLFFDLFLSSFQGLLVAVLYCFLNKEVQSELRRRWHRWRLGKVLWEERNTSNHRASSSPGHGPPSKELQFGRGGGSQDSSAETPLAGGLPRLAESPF

Binder	EC50 (GIP receptor)	relative activity (GIP receptor)	EC50 (GLP-1 receptor)	relative activity (GLP-1 receptor)	EC50 (glucagon receptor)	relative activity (glucagon receptor)
Y[Aib]QGTFTSDYSIYLDEQAAKEFVNWLLAG-NH2 (lactam 16-20; N-terminus assumed; SMILES CC[C@H](C)[C@H](NC(=O)[C@H](CO)NC(=O)[C@H](Cc1ccc(O)cc1)NC(=O)[C@H](CC(=O)O)NC(=O)[C@H](CO)NC(=O)[C@@H](NC(=O)[C@H](Cc1ccccc1)NC(=O)[C@@H](NC(=O)CNC(=O)[C@H](CCC(N)=O)NC(=O)C(C)(C)NC(=O)[C@@H](N)Cc1ccc(O)cc1)[C@@H](C)O)[C@@H](C)O)C(=O)N[C@@H](Cc1ccc(O)cc1)C(=O)N[C@@H](CC(C)C)C(=O)N[C@@H](CC(=O)O)C(=O)N[C@H]1CCC(=O)NCCCC[C@@H](C(=O)N[C@@H](CCC(=O)O)C(=O)N[C@@H](Cc2ccccc2)C(=O)N[C@H](C(=O)N[C@@H](CC(N)=O)C(=O)N[C@@H](Cc2c[nH]c3ccccc23)C(=O)N[C@@H](CC(C)C)C(=O)N[C@@H](CC(C)C)C(=O)N[C@@H](C)C(=O)NCC(N)=O)C(C)C)NC(=O)[C@H](C)NC(=O)[C@H](C)NC(=O)[C@H](CCC(N)=O)NC1=O) [mt-164]	0.164 nM	16.5%	0.046 nM	56.5%	0.151 nM	110%
Y[Aib]QGTFTSDYSIYLDEQAAKEFVNWLLAGGPSSGAPPPSC-NH2 (lactam 16-20; N-terminus assumed; SMILES CC[C@H](C)[C@H](NC(=O)[C@H](CO)NC(=O)[C@H](Cc1ccc(O)cc1)NC(=O)[C@H](CC(=O)O)NC(=O)[C@H](CO)NC(=O)[C@@H](NC(=O)[C@H](Cc1ccccc1)NC(=O)[C@@H](NC(=O)CNC(=O)[C@H](CCC(N)=O)NC(=O)C(C)(C)NC(=O)[C@@H](N)Cc1ccc(O)cc1)[C@@H](C)O)[C@@H](C)O)C(=O)N[C@@H](Cc1ccc(O)cc1)C(=O)N[C@@H](CC(C)C)C(=O)N[C@@H](CC(=O)O)C(=O)N[C@H]1CCC(=O)NCCCC[C@@H](C(=O)N[C@@H](CCC(=O)O)C(=O)N[C@@H](Cc2ccccc2)C(=O)N[C@H](C(=O)N[C@@H](CC(N)=O)C(=O)N[C@@H](Cc2c[nH]c3ccccc23)C(=O)N[C@@H](CC(C)C)C(=O)N[C@@H](CC(C)C)C(=O)N[C@@H](C)C(=O)NCC(=O)NCC(=O)N2CCC[C@H]2C(=O)N[C@@H](CO)C(=O)N[C@@H](CO)C(=O)NCC(=O)N[C@@H](C)C(=O)N2CCC[C@H]2C(=O)N2CCC[C@H]2C(=O)N2CCC[C@H]2C(=O)N[C@@H](CO)C(=O)N[C@@H](CS)C(N)=O)C(C)C)NC(=O)[C@H](C)NC(=O)[C@H](C)NC(=O)[C@H](CCC(N)=O)NC1=O) [mt-165]	0.074 nM	27%	0.023 nM	148%	0.489 nM	18.8%
YSQGTFTSDYSIYLDEEAAKEFVNWLLAGGPSSGAPPPS-NH2 (lactam 17-20; N-terminus assumed; SMILES CC[C@H](C)[C@H](NC(=O)[C@H](CO)NC(=O)[C@H](Cc1ccc(O)cc1)NC(=O)[C@H](CC(=O)O)NC(=O)[C@H](CO)NC(=O)[C@@H](NC(=O)[C@H](Cc1ccccc1)NC(=O)[C@@H](NC(=O)CNC(=O)[C@H](CCC(N)=O)NC(=O)[C@H](CO)NC(=O)[C@@H](N)Cc1ccc(O)cc1)[C@@H](C)O)[C@@H](C)O)C(=O)N[C@@H](Cc1ccc(O)cc1)C(=O)N[C@@H](CC(C)C)C(=O)N[C@@H](CC(=O)O)C(=O)N[C@@H](CCC(=O)O)C(=O)N[C@H]1CCC(=O)NCCCC[C@@H](C(=O)N[C@@H](CCC(=O)O)C(=O)N[C@@H](Cc2ccccc2)C(=O)N[C@H](C(=O)N[C@@H](CC(N)=O)C(=O)N[C@@H](Cc2c[nH]c3ccccc23)C(=O)N[C@@H](CC(C)C)C(=O)N[C@@H](CC(C)C)C(=O)N[C@@H](C)C(=O)NCC(=O)NCC(=O)N2CCC[C@H]2C(=O)N[C@@H](CO)C(=O)N[C@@H](CO)C(=O)NCC(=O)N[C@@H](C)C(=O)N2CCC[C@H]2C(=O)N2CCC[C@H]2C(=O)N2CCC[C@H]2C(=O)N[C@@H](CO)C(N)=O)C(C)C)NC(=O)[C@H](C)NC(=O)[C@H](C)NC1=O) [mt-167]	0.399 nM	5.01%	0.315 nM	7.94%	0.362 nM	34.5%
Y[Aib]QGTFTSDYSYYLDEQAVKEFVNWLIAGGPSSGAPPPS-NH2 (lactam 16-20; N-terminus assumed; SMILES CC[C@H](C)[C@H](NC(=O)[C@H](CC(C)C)NC(=O)[C@H](Cc1c[nH]c2ccccc12)NC(=O)[C@H](CC(N)=O)NC(=O)[C@@H](NC(=O)[C@H](Cc1ccccc1)NC(=O)[C@H](CCC(=O)O)NC(=O)[C@@H]1CCCCNC(=O)CC[C@H](NC(=O)[C@H](CC(=O)O)NC(=O)[C@H](CC(C)C)NC(=O)[C@H](Cc2ccc(O)cc2)NC(=O)[C@H](Cc2ccc(O)cc2)NC(=O)[C@H](CO)NC(=O)[C@H](Cc2ccc(O)cc2)NC(=O)[C@H](CC(=O)O)NC(=O)[C@H](CO)NC(=O)[C@@H](NC(=O)[C@H](Cc2ccccc2)NC(=O)[C@@H](NC(=O)CNC(=O)[C@H](CCC(N)=O)NC(=O)C(C)(C)NC(=O)[C@@H](N)Cc2ccc(O)cc2)[C@@H](C)O)[C@@H](C)O)C(=O)N[C@@H](CCC(N)=O)C(=O)N[C@@H](C)C(=O)N[C@@H](C(C)C)C(=O)N1)C(C)C)C(=O)N[C@@H](C)C(=O)NCC(=O)NCC(=O)N1CCC[C@H]1C(=O)N[C@@H](CO)C(=O)N[C@@H](CO)C(=O)NCC(=O)N[C@@H](C)C(=O)N1CCC[C@H]1C(=O)N1CCC[C@H]1C(=O)N1CCC[C@H]1C(=O)N[C@@H](CO)C(N)=O) [mt-162]	0.136 nM	25.7%	0.011 nM	109%	7 nM	0.97%
Y[dA]QGTFTSDYSIYLDEQAAKEFVNWLLAGGPSSGAPPPSC-NH2 (lactam 16-20; N-terminus assumed; SMILES CC[C@H](C)[C@H](NC(=O)[C@H](CO)NC(=O)[C@H](Cc1ccc(O)cc1)NC(=O)[C@H](CC(=O)O)NC(=O)[C@H](CO)NC(=O)[C@@H](NC(=O)[C@H](Cc1ccccc1)NC(=O)[C@@H](NC(=O)CNC(=O)[C@H](CCC(N)=O)NC(=O)[C@@H](C)NC(=O)[C@@H](N)Cc1ccc(O)cc1)[C@@H](C)O)[C@@H](C)O)C(=O)N[C@@H](Cc1ccc(O)cc1)C(=O)N[C@@H](CC(C)C)C(=O)N[C@@H](CC(=O)O)C(=O)N[C@H]1CCC(=O)NCCCC[C@@H](C(=O)N[C@@H](CCC(=O)O)C(=O)N[C@@H](Cc2ccccc2)C(=O)N[C@H](C(=O)N[C@@H](CC(N)=O)C(=O)N[C@@H](Cc2c[nH]c3ccccc23)C(=O)N[C@@H](CC(C)C)C(=O)N[C@@H](CC(C)C)C(=O)N[C@@H](C)C(=O)NCC(=O)NCC(=O)N2CCC[C@H]2C(=O)N[C@@H](CO)C(=O)N[C@@H](CO)C(=O)NCC(=O)N[C@@H](C)C(=O)N2CCC[C@H]2C(=O)N2CCC[C@H]2C(=O)N2CCC[C@H]2C(=O)N[C@@H](CO)C(=O)N[C@@H](CS)C(N)=O)C(C)C)NC(=O)[C@H](C)NC(=O)[C@H](C)NC(=O)[C@H](CCC(N)=O)NC1=O) [mt-166]	0.32 nM	5.94%	0.134 nM	26.9%	0.875 nM	9.83%
YSQGTFTSDYSIYLDEQAAKEFVNWLLAG-NH2 (lactam 16-20; N-terminus assumed; SMILES CC[C@H](C)[C@H](NC(=O)[C@H](CO)NC(=O)[C@H](Cc1ccc(O)cc1)NC(=O)[C@H](CC(=O)O)NC(=O)[C@H](CO)NC(=O)[C@@H](NC(=O)[C@H](Cc1ccccc1)NC(=O)[C@@H](NC(=O)CNC(=O)[C@H](CCC(N)=O)NC(=O)[C@H](CO)NC(=O)[C@@H](N)Cc1ccc(O)cc1)[C@@H](C)O)[C@@H](C)O)C(=O)N[C@@H](Cc1ccc(O)cc1)C(=O)N[C@@H](CC(C)C)C(=O)N[C@@H](CC(=O)O)C(=O)N[C@H]1CCC(=O)NCCCC[C@@H](C(=O)N[C@@H](CCC(=O)O)C(=O)N[C@@H](Cc2ccccc2)C(=O)N[C@H](C(=O)N[C@@H](CC(N)=O)C(=O)N[C@@H](Cc2c[nH]c3ccccc23)C(=O)N[C@@H](CC(C)C)C(=O)N[C@@H](CC(C)C)C(=O)N[C@@H](C)C(=O)NCC(N)=O)C(C)C)NC(=O)[C@H](C)NC(=O)[C@H](C)NC(=O)[C@H](CCC(N)=O)NC1=O) [mt-163]	0.74 nM	4.73%	0.04 nM	30%	0.027 nM	252%
